These are literature values, as cited in article PMC9161494.

The term Kd denotes the equilibrium constant for the complex coming apart.

The data set concerns the target EGFR (Homo sapiens) (UniProt P00533).

PEPDG278D (from UniProt P12955): the Kd is 17.7 nM.
